We go through 23 molecules from patent US20240279357A1 (THERINI BIO, published 2024).

For test [1], the target named is plasminogen-depleted human Fibrinogen (EMD/Calbiochem) (human) (UniProt P02671). The test can be described thus: ELISA on plate-coated human fibrinogen, antibody titrated, A450. On the technique in general: In an ELISA, binding on a coated surface is turned into a signal by an enzyme label.
Test [2] has as its target T1, P2 peptide comprising SEQ ID NO: 31 (human fibrin γ377-395) (human).
T1 construct: Bought (CPC Scientific 920712); also called human P2 peptide
T1 peptide: YSMKKTTMKIIPFNRLTIG
The test can be described thus: SPR (Biacore) single cycle, steady state affinity; IgG from HEK supernatant captured, γ377-395 peptide analyte. (In general: Surface plasmon resonance follows binding to a sensor surface in real time, without labels.)

The target of test [3] is T1, P2 peptide comprising SEQ ID NO: 31 …. The test can be described thus: SPR (Biacore) single cycle, steady state fit; IgG from HEK supernatant captured, P2 peptide analyte. As for the experimental part: FIG. 18 illustrates the procedure used for the single cycle kinetics analysis. The Biacore T200 […] instrument was used for single cycle kinetics analysis with the control software v2.0.1, and evaluation software V3.0. The anti-human capture chip was used with a running buffer consisting of HBS-P+ buffer (pH 7.4) containing 0.1% BSA at 25° C. a flow rate of 30 μl/min. Neat HEK supernatants were used as ligand and loaded to ˜1674 RU at 10 μl/min. P2 peptide comprising SEQ ID NO: 31 (CPC Scientific 920712, Lot #CS-02-00350) was the analyte for the analysis. […] Regeneration was performed with MgCl₂. Antibodies were diluted in running buffer to a final concentration of 20 μg/ml, based on concentrations assessed by Octet titre. At the start of each cycle, antibodies were loaded onto Fc2, Fc3 and Fc4 of the anti-human capture chip (GE Healthcare, Little Chalfont, UK). IgGs were captured at a flow rate of 10 μl/min to give an immobilization level (RL) of ˜ 1674 RU, the theoretical value to obtain an RMax of ˜50 RU. The surface was then allowed to stabilize. Single cycle kinetic data was obtained with P2 peptide as the analyte at a flow rate of 30 μl/min to minimize any potential mass transport limitations. […] The signal from the reference channel Fc1 (no antibody) was subtracted from that of Fc2, Fc3 and Fc4 to correct for differences in non-specific binding to a reference surface. […] The association phase for the five injections of increasing concentrations of P2 peptide was monitored for 20 seconds each time and a single dissociation phase was measured for 25 seconds following the last injection analyte. Regeneration of the anti-human capture surface was conducted using one injection of 3.8 M magnesium chloride.

Where a chain is given by its changes, count along the chain named. In names and notes the source's numbering stands.

Chain of plasminogen-depleted human Fibrinogen (EMD/Calbiochem) (human) (P02671 20-629 limits assumed, chain 1 of 3): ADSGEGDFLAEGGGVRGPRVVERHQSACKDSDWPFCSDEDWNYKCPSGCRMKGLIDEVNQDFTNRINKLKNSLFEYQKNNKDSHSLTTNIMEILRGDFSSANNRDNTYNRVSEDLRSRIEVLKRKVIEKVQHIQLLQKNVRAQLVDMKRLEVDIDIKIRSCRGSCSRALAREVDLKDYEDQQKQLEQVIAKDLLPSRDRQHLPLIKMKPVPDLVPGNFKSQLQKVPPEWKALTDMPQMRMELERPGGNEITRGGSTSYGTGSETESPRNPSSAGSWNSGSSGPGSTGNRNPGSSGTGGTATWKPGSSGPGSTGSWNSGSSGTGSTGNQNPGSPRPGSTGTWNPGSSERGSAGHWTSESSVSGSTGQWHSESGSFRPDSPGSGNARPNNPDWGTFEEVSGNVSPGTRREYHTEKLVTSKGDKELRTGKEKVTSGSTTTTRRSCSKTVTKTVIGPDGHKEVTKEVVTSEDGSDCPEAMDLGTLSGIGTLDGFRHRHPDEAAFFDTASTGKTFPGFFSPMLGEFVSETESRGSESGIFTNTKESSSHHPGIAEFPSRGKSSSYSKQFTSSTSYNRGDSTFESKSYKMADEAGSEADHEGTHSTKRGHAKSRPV
Chain of plasminogen-depleted human Fibrinogen (EMD/Calbiochem) (human) (P02675 31-491 limits assumed, chain 2 of 3, further chain): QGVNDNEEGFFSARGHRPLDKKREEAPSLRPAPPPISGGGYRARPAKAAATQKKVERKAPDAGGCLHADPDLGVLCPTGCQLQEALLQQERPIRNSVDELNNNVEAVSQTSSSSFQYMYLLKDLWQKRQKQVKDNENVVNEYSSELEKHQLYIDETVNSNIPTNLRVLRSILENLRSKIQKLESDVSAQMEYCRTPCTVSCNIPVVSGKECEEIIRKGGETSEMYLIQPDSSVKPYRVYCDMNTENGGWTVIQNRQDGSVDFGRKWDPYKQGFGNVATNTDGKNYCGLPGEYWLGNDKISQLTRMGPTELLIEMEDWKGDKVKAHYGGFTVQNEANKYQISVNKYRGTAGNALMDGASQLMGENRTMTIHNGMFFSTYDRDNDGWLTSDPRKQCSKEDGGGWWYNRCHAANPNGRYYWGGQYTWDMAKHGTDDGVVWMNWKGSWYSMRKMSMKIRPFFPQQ
Chain of plasminogen-depleted human Fibrinogen (EMD/Calbiochem) (human) (P02679 other isoform, or with tags, fused parts or gaps limits assumed, chain 3 of 3, further chain): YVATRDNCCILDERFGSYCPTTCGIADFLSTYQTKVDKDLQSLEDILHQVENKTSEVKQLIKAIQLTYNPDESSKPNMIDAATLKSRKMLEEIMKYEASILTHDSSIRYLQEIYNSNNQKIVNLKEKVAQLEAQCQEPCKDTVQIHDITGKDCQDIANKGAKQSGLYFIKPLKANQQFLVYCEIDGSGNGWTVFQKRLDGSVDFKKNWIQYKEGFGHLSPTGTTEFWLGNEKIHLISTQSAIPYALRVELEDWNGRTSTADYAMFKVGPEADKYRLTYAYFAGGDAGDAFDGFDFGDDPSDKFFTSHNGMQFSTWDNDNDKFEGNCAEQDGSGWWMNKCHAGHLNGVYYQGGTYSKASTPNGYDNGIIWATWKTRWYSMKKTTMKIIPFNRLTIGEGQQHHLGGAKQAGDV

Consider mouse IgG2b isotype control (antibody), for which the EC50 (as a rule, the concentration needed to bring the measured effect to its halfway point) in test [1] turned out to be 1840 nM.

B1: VH4 C102A/VK2 (antibody, IgG1, V domains shown)
VH: QVQLVQSGAEVKKPGSSVKVSCKASGYTFTSYWIHWVRQAPGQGLEWIGLIDPSDSYTNYNQKFRGRVTITVDTSTSTAYMELSSLRSEDTAVYYCASSDPTGAWGQGTTVTVSS
VL: DIVMTQAAFSNPVTPGTPASISCRSSKSLLHSSGITYLSWYLQKPGQSPQLLIYQMSNLASGVPDRFSSSGSGTDFTLKISRVEAEDVGVYYCAQNLELPLTFGQGTKLEIK
notes: IgG1, tested from HEK supernatant
For B1, in test [2], the Kd (as a rule, a measure of binding affinity in units of concentration) is 72 µM and the “Relative KD” value turned out to be 1.53 fold against VH4/VK2.

B2: VH1/VK3 (antibody, V domains shown)
VH: B1 VH with V11L, S16T, V20L, R38K, V68A, I70L, E82Q, R87T, T91S, A104C
VL: B1 VL with A7S, A8P, F9L, N11L, T17E
With B2, in test [3], the affinity, expressed as Kd, was 200 µM and the “Relative KD” value is 2.25 fold against VH0/VK0.

B3: VH4/VK3 (antibody, V domains shown)
VH: B1 VH with A104C
VL: B1 VL with A7S, A8P, F9L, N11L, T17E
Consider B3, for which, in test [3], binding was put at a Kd of 148 µM and the “Relative KD” value was found to be 1.67 fold against VH0/VK0.

B4: VH1/VK1 (antibody, V domains shown)
VH: B1 VH with V11L, S16T, V20L, R38K, V68A, I70L, E82Q, R87T, T91S, A104C
VL: B1 VL with V13I, K79R
In test [3], B4 yielded a Kd of 104 µM.

B5: VH1/VK4 (antibody, V domains shown)
VH: B1 VH with V11L, S16T, V20L, R38K, V68A, I70L, E82Q, R87T, T91S, A104C
VL: B1 VL with A7S, A8P, F9L, N11L, T17E, S69G
Consider B5, for which, in test [3], binding was characterised by a dissociation constant (Kd) of 176 µM and the “Relative KD” value came out at 1.98 fold against VH0/VK0.

B6: VH1/VK2 (antibody, V domains shown)
VH: B1 VH with V11L, S16T, V20L, R38K, V68A, I70L, E82Q, R87T, T91S, A104C
VL: B1 VL
Turning to B6, in test [3], the affinity, expressed as Kd, was 96.4 µM and the “Relative KD” value came out at 1.09 fold against VH0/VK0.

B7: VH5 C102S/VK2 (antibody, IgG1, V domains shown)
VH: B1 VH with V72R, A104S
VL: B1 VL
notes: as for B1
Turning to B7, in test [2], the Kd is 110 µM and the “Relative KD” value turned out to be 1.33 fold against VH5/VK2.

B8: VH5 C102L/VK2 (antibody, IgG1, V domains shown)
VH: B1 VH with V72R, A104L
VL: B1 VL
notes: IgG1, tested from HEK supernatant; also called VH5-102L
Regarding B8, in test [2], the Kd is 140 µM and the “Relative KD” value worked out at 1.77 fold against VH5/VK2.

B9: VH5/VK4 (antibody, IgG1, V domains shown)
VH: B1 VH with V72R, A104C
VL: B1 VL with A7S, A8P, F9L, N11L, T17E, S69G
notes: Expressed as IgG1
As for B9, in test [3], the affinity, expressed as Kd, was 277 µM and the “Relative KD” value came out at 3.12 fold against VH0/VK0.

B10: VH4 C102T/VK2 (antibody, IgG1, V domains shown)
VH: B1 VH with A104T
VL: B1 VL
notes: as for B1
B10: in test [2], the Kd amounted to 49 µM and the “Relative KD” value is 1.05 fold against VH4/VK2.

B11: VH5/VK3 (antibody, IgG1, V domains shown)
VH: B1 VH with V72R, A104C
VL: B1 VL with A7S, A8P, F9L, N11L, T17E
notes: Expressed as IgG1
B11: in test [3], binding was put at a Kd of 279 µM and the “Relative KD” value was found to be 3.15 fold against VH0/VK0.

B12: VH6/VK3 (antibody, IgG1, V domains shown)
VH: B1 VH with R65Q, V72R, A104C
VL: B1 VL with A7S, A8P, F9L, N11L, T17E
notes: Expressed as IgG1
In the case of B12, in test [3], binding was characterised by a dissociation constant (Kd) of 192 µM and the “Relative KD” value amounted to 2.16 fold against VH0/VK0.

B13: VH4 C102G/VK2 (antibody, IgG1, V domains shown)
VH: B1 VH with A104G
VL: B1 VL
notes: IgG1, tested from HEK supernatant; also called VH4-102G
B13: in test [2], the affinity, expressed as Kd, was 22 µM and the “Relative KD” value turned out to be 0.59 fold against VH4/VK2.

B14: VH4 C102L/VK2 (antibody, IgG1, V domains shown)
VH: B1 VH with A104L
VL: B1 VL
notes: IgG1, tested from HEK supernatant; also called VH4-102L
For the molecule B14, in test [2], binding was characterised by a dissociation constant (Kd) of 93 µM and the “Relative KD” value stood at 1.98 fold against VH4/VK2.

B15: VH6/VK1 (antibody, IgG1, V domains shown)
VH: B1 VH with R65Q, V72R, A104C
VL: B1 VL with V13I, K79R
notes: Expressed as IgG1
With B15, in test [3], the Kd came out at 174 µM and the “Relative KD” value worked out at 1.96 fold against VH0/VK0.

B16: VH5/VK1 (antibody, IgG1, V domains shown)
VH: B1 VH with V72R, A104C
VL: B1 VL with V13I, K79R
notes: Expressed as IgG1
As for B16, in test [3], the Kd was found to be 173 µM and the “Relative KD” value was determined as 1.95 fold against VH0/VK0.

B17: VH5 C102V/VK2 (antibody, IgG1, V domains shown)
VH: B1 VH with V72R, A104V
VL: B1 VL
notes: IgG1, tested from HEK supernatant; also called VH5-102V
For the molecule B17, in test [2], the affinity, expressed as Kd, was 44 µM and the “Relative KD” value worked out at 0.56 fold against VH5/VK2.

B18: VH5 C102A/VK2 (antibody, IgG1, V domains shown)
VH: B1 VH with V72R
VL: B1 VL
notes: as for B1
Turning to B18, in test [2], the Kd was found to be 110 µM and the “Relative KD” value was 1.44 fold against VH5/VK2.

B19: VH4/VK4 (antibody, IgG1, V domains shown)
VH: B1 VH with A104C
VL: B1 VL with A7S, A8P, F9L, N11L, T17E, S69G
notes: Expressed as IgG1
Turning to B19, in test [3], the affinity, expressed as Kd, was 157 µM and the “Relative KD” value is 1.77 fold against VH0/VK0.

B20: VH4 C102S/VK2 (antibody, IgG1, V domains shown)
VH: B1 VH with A104S
VL: B1 VL
notes: as for B1
On to B20, for which, in test [2], binding was characterised by a dissociation constant (Kd) of 66 µM and the “Relative KD” value was determined as 1.41 fold against VH4/VK2.

B21: VH4 C102V/VK2 (antibody, IgG1, V domains shown)
VH: B1 VH with A104V
VL: B1 VL
notes: IgG1, tested from HEK supernatant; also called VH4-102V
Regarding B21, in test [2], the Kd is 33 µM and the “Relative KD” value was found to be 0.7 fold against VH4/VK2.

B22: humanized anti-fibrin antibody variant VH5 C102G/VK2 (antibody, IgG1, V domains shown)
VH: B1 VH with V72R, A104G
VL: B1 VL
notes: IgG1, tested from HEK supernatant in the SPR assay; also called VH5 C102G/Vκ2; VH5-102G
B22: in test [2], the Kd stood at 39 µM and the “Relative KD” value is 0.5 fold against VH5/VK2.
